Reference: US10577424 (BEIJING MABWORKS BIOTECH, dated 2020)

Columns and labels:
[1] = molecular target: T1, monkey VISTA (ECD)-his (Sino Biological, Cat #: 90801-K08H) (cynomolgus monkey); test: direct ELISA, coated cynoVISTA(ECD)-his
T1 construct: extracellular domain; Bought protein; also called cynoVISTA(ECD)-his; cynomolgus VISTA (ECD)-his
Method: (§1) Species-cross-reactivity of the 28 VISTA mAbs to monkey or mouse VISTA was further assessed by direct ELISA. Briefly, 500 ng/ml monkey VISTA (ECD)-his (Sino Biological, CN, Cat #: 90801-K08H) or mouse VISTA-his (Sino Biological, CN, Cat #:511550-M08H) was coated on 96-well ELISA plates followed by incubation with 100 μl of serially diluted anti-VISTA antibodies (starting from 40000 ng/ml). Goat anti-mouse IgG conjugated with HRP (Sigma, US, Cat #:A9309-1 ml) was used then. Anti-VISTA antibody JNJ-VSTB174 (referred to as JNJ) (prepared using the amino acid sequences disclosed in WO 2015/097536 A2 with human IgG1/kappa constant regions) was used as the reference.

[2] = molecular target: T2, mouse VISTA expressed on HEK293A cells (mouse, UniProt Q9D659 33-308); test: FACS on HEK293A/mouse VISTA cells
T2 construct: also called HEK293A/mouseVISTA; HEK293A/mouse VISTA
T2 sequence: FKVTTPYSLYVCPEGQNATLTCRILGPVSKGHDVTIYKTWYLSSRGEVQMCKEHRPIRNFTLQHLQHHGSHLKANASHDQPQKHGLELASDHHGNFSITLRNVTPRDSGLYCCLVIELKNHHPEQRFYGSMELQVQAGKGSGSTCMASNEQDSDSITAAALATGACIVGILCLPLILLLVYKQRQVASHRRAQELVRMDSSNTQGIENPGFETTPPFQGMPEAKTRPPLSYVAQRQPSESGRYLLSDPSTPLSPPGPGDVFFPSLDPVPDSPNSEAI
Method: (§2) Example 5 Mouse Anti-VISTA Monoclonal Antibodies Bound to Human and Monkey VISTA Expressed on HEK293A Cells To further determine whether anti-VISTA antibodies bound to human, monkey or mouse VISTA expressed on HEK293A cells, a cell-based binding assay by FACS was performed using the HEK293A cells stably overexpressing human, monkey or mouse VISTA as generated in Example 1, respectively. Briefly, 10^5 HEK293A cells were seeded into each well of the 96-well plates and serially diluted anti-VISTA antibodies were added to the plates. After incubated at 4° C. for 1 hour, plates were washed 3 times with PBST. Then, an APC coupled Goat Anti-Mouse IgG (BioLegend, US, Cat #:405308) diluted 500× was added to the plates. After incubation at 4° C. for 1 hour, the plates were washed with PBS for 3 times and then cell fluorescence was monitored using a FACS machine (BD).

[3] = molecular target: T3, human VISTA expressed on HEK293A cells (human, UniProt Q9H7M9 33-311); test: FACS on HEK-293A/hVISTA cells
T3 construct: also called HEK293A/humanVISTA; HEK293A/human VISTA
T3 sequence: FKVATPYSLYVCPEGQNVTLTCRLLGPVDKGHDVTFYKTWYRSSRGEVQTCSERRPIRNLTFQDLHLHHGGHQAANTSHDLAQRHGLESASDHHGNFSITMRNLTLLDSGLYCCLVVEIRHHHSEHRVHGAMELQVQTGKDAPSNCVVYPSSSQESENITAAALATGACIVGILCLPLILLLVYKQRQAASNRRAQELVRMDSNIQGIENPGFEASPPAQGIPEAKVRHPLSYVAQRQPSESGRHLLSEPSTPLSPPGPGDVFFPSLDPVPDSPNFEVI
Method: as §2

[4] = molecular target: T4, human VISTA (ECD)-his (Sino Biological, Cat #:13482-H08H) (human, UniProt Q9H7M9 33-194); test: direct ELISA, coated hVISTA(ECD)-his
T4 construct: extracellular domain; Bought protein; also called hVISTA(ECD)-his; recombinant human VISTA(ECD)-his; not shown: his tag
T4 sequence (looked up): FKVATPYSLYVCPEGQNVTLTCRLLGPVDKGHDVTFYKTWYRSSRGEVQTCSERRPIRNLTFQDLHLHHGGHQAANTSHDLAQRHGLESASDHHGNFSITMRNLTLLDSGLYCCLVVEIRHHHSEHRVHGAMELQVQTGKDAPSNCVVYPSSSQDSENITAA
Method: ELISA plates were coated with 500 ng/ml human VISTA (ECD)-his (Sino Biological, CN, Cat #:13482-H08H) at 4° C. overnight. The wells were blocked with 200 μl of blocking buffer (PBS containing 1% BSA, 1% goat serum, and 0.05% Tween 20) for 2 hours at room temperature, and then 100 μl of serially diluted anti-VISTA antibodies (starting from 40000 ng/ml) were added to each well and incubated for 1 hour at RT. Plates were washed for 3 times with PBST (PBS+0.05% Tween 20), added with Goat-anti-mouse IgG-HRP (Simga, US, Cat #:A9309-1 ml) diluted 5000×, and incubated for 1 hour at RT. Plates were developed with freshly prepared Ultra-TMB (BD, US, Cat #:555214) for 5 minutes at RT. Absorbance was read on a SpectraMax® i3× (Molecular Devies, US) at 450 nm.

[5] = molecular target: T3, human VISTA expressed on HEK293A cells; test: FACS blocking assay on HEK293A/human VISTA cells; competitor 200 µg/ml VSIG3-hFc
Method: A cell-based blocking assay by FACS was performed using the HEK293A cells stably overexpressing human VISTA as generated in Example 1. Briefly, 10^5 HEK293A/human VISTA cells were seeded into each well of the 96-well plates and serially diluted anti-VISTA antibodies were added to the plates. After incubated at 4° C. for 1 hour, plates were washed 3 times with PBST. Then 200 μg/ml VSIG3-hFc fusion proteins were added into the plate. After incubation at 4° C. for 1 hour, the plates were washed with PBS for 3 times and then an PE coupled Goat Anti-human IgG (Thermofisher, USA, Cat # PAI-86078) diluted 500× was added to the plates. After incubation at 4° C. for 1 hour, the plates were washed with PBS for 3 times and then cell fluorescence was monitored using a FACS machine (BD).

[6] = molecular target: T5, monkey VISTA expressed on HEK293A cells (monkey (cynomolgus)); test: FACS on HEK-293A/cynoVISTA cells
T5 construct: also called HEK293A/cynoVISTA; HEK293A/monkey VISTA
T5 chain: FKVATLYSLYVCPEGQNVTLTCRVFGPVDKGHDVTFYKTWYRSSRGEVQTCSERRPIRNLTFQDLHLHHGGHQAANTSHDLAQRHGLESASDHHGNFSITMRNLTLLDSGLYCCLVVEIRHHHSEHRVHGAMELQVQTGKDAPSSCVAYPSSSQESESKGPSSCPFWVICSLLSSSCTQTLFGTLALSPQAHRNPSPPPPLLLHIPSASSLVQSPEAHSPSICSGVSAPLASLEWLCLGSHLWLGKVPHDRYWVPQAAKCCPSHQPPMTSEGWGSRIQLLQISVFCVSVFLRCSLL
Method: as §2

[7] = molecular target: T6, mouse VISTA-his (Sino Biological, Cat #:511550-M08H) (mouse, UniProt Q9D659 33-191); test: direct ELISA, coated mouse VISTA-his
T6 construct: extracellular domain; Bought protein; also called muVISTA-his; mouse VISTA (ECD)-his; not shown: his tag
T6 sequence (looked up): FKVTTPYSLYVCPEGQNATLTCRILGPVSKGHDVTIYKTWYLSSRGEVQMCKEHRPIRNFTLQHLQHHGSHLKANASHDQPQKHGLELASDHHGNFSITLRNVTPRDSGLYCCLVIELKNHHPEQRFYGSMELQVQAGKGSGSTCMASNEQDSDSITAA
Method: as §1

EC50 [1]: 0.45 nM | binding result [2]: no binding | EC50 [3]: 0.6 nM | EC50 [4]: 0.32 nM | EC50 [5]: 19 nM | EC50 [6]: 1.2 nM
B1: mouse 161E5 anti-VISTA antibody (antibody, V domains shown)
VH: QVQLKQSGAELVRPGASVKLSCKASGYSFTDYYINWVKQRPGQGLEWIARIFPGSGNAYYNEKFKDKATLTVEKSSSAAYMQLSSLTSEDSAVYFCARDDSFYGYWYFDVWGTGTTVTVSS
VL: NIMMTQSPSSLAVSAGEKVTMSCKSSQSVLYSSNQKNYLAWYQQKPGQSPKLLIYWASTRESGVPDRFTGSGSGTDFTLTISSVQAEDLAVYYCHQYLSSYTFGGGTKLEIK
notes: also called mouse anti-VISTA antibodies from clone 161E5; murine antibody 161E5
binding result [7]: no binding (tested: starting from 40000 ng/ml)
